Test [1] concerns the target actin filament (F-actin) of chicken skeletal α-actin, pointed end (chicken) (UniProt P68139).
For test [2] the target is unchanged. Briefly: pyrene-actin pointed end elongation assay; apparent KD from inhibition of pointed end elongation; 0.8 µM F-actin seeds with 8 nM capping protein incubated with the titrated protein, 2 µM G-actin (8% pyrene-labeled) added; 10 mM HEPES pH 7.4, 50 mM KCl, 1 mM MgCl2, 1 mM EGTA; hyperbolic fit of normalized rates.
The target is the same in test [3]. The source holds these as a separate data set.
Test [4] has the same target. This is another data set of the same source.
For test [5] the target is unchanged. The test is described as follows: pyrene-actin dilution-induced pointed end depolymerization assay; apparent KD from inhibition of pointed end depolymerization; 10 µM CP-capped pyrene F-actin (20% labeled) incubated with the protein 15 min on ice, diluted to 0.5 µM; hyperbolic fit of normalized rate constants.

human SH3BGRL, sequence (O75368 whole entry): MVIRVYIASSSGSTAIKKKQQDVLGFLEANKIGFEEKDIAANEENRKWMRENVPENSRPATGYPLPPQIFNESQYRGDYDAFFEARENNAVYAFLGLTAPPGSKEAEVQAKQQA
human SH3BGRL-3, sequence (Q9H299 whole entry): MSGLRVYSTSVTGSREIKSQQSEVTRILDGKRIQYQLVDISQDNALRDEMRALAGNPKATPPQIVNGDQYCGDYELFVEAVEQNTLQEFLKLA
human tropomodulin-3, sequence (Q9NYL9 whole entry): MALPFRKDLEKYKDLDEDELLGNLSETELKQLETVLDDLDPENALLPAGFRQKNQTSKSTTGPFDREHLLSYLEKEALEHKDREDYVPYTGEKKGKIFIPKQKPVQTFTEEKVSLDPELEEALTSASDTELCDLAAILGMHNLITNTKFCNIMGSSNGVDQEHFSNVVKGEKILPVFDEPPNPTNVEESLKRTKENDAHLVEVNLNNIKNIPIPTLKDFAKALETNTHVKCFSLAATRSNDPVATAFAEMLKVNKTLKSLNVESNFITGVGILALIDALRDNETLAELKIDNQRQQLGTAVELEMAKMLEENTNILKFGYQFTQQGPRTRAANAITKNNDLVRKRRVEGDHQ

“human SH3BGRL (from UniProt O75368 1-114) (natural protein)” came in with a concentration required for half-maximal inhibition of pointed end depolymerization (K50%), CP-capped pyrene F-actin in test [1] of 7.6 µM. In addition, the Kd in test [2] worked out at 85 nM. This substance displayed a pyrene-actin bulk polymerization from 2 µM α-actin (5% pyrene-labeled), increasing SH3BGRL: increase of the net polymerization rate in test [3] below 3 fold. Besides, in test [4], the apparent rate of filament nucleation knuc, TIRFM, 1 µM ATTO-488 α-actin, 1-5 µM SH3BGRL (actin only: 5.1 × 10^-6) was 2.22e-05 µm^-2 s^-1.

On to “human SH3BGRL-3 (from UniProt Q9H299 1-93) (natural protein)”, for which the concentration required for half-maximal inhibition of pointed end depolymerization (K50%), CP-capped pyrene F-actin in test [1] was found to be 7.7 µM. For the same substance, the Kd in test [2] stood at 31 nM. The substance further showed a pyrene-actin bulk polymerization from 2 µM α-actin (5% pyrene-labeled), increasing SH3BGRL-3: increase of the net polymerization rate in test [3] below 3 fold. The apparent rate of filament nucleation knuc, TIRFM, 1 µM ATTO-488 α-actin, 0.5-5 µM SH3BGRL-3 (actin only: 5.1 × 10^-6) in test [4] was found to be 3.42e-05 µm^-2 s^-1.

For “human tropomodulin-3 (from UniProt Q9NYL9 1-352) (natural protein)”, the Kd in test [2] came out at 180 nM; in test [5] it was 130 nM.
